In assay [1] the target is UBE2D2 (1–147), from the plasmid pHis//2 Hs UBE2D2 (1–147) (human) (UniProt P62837). The assay is described as follows: BLI. The following applies: enzyme.
Assay [2] concerns the target CHIP Y230Cfs∗9, recombinant, C-terminal His tag (human) (UniProt Q9UNE7). The assay is described as follows: mass photometry; Refeyn OneMP; CHIP at 50 nM final (a subset also at 20 nM and 100 nM) in 20 mM HEPES pH 8.0, 200 mM NaCl; self-association, oligomeric states by mass.

CHIP Y230Cfs∗9, recombinant, C-terminal His tag, sequence (Q9UNE7 whole entry): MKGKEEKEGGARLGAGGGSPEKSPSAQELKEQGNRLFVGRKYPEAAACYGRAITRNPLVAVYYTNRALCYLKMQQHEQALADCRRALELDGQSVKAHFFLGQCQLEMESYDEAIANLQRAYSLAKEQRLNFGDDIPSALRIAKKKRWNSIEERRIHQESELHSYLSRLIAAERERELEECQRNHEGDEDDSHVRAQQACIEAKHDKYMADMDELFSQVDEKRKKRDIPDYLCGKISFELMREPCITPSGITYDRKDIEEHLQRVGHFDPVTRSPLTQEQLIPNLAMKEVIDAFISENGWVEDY
UBE2D2 (1–147), from the plasmid pHis//2 Hs UBE2D2 (1–147) (human), sequence (P62837 whole entry): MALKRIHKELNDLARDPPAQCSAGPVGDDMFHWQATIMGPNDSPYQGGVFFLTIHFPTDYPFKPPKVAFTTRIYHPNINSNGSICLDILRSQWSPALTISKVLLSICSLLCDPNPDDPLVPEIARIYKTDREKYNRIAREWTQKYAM
CHIP L275Dfs∗16, recombinant, C-terminal His tag, sequence (Q9UNE7 whole entry): as the sequence (Q9UNE7 whole entry) above

For the substance “CHIP L275Dfs∗16, recombinant, C-terminal His tag (from UniProt Q9UNE7-1 1-303)”, the Kd in assay [1] worked out at 308 µM. Turning to “CHIP Y230Cfs∗9, recombinant, C-terminal His tag (from UniProt Q9UNE7-1 1-303) (enzyme)”, in assay [2], the percent of the protein as dimer worked out at 80% and the stoichiometry N amounted to 2.
